Assay results: US20180155451A1 (published 2018)

T1: FcγRIIb (human, UniProt P31994 43-217)
T1 construct: extracellular domain; Soluble extracellular domain with C-terminal His tag, used as analyte in Biacore; also called FcgRIIb; 2b; not shown: His tag attached to the C terminus
T1 sequence (looked up): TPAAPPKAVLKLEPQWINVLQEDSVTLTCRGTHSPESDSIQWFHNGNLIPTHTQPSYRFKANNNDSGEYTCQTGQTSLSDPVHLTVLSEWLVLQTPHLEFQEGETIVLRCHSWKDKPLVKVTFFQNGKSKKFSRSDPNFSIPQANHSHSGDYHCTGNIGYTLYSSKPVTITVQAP


Assays:
[1] = biological target: T2, FcγRIIIa extracellular domain with C-terminal His tag (human, UniProt P08637 17-208); assay: SPR (Biacore); ratio of He/Con_3a (FcγRIIIa) to He/Con_2b (FcγRIIb)
T2 construct: extracellular domain; also called FcgRIIIa; 3a; not shown: His tag at the C terminus
T2 sequence (P08637 17-208): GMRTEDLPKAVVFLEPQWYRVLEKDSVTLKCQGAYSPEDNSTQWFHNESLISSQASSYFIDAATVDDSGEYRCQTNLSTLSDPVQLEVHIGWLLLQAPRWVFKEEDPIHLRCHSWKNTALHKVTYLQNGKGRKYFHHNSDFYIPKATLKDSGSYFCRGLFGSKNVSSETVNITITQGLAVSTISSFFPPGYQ
Protocol: (§1) The heterodimerized antibodies He Abs in which one of the H chains was introduced with an alteration were assayed for their binding activities to each activating FcγR and inhibitory FcγR according to the method described in Example 4. […] The activating FcγRs in FIGS. 26, 27, 28, and 29 are FcγRIa, FcγRIIa (R), FcγRIIa (H), and FcγRIIIa, respectively.
(§2) Analysis of interaction between objective antibody and the FcγR was carried out using Biacore T100 (GE Healthcare). HBS-EP+ (GE Healthcare) was used as the running buffer, and the measurement temperature was set to 25° C. Chips produced by immobilizing the antigen peptide by the amine coupling method to a Series S Sencor Chip CM5 (GE Healthcare), or alternatively, chips produced by allowing preliminarily biotinylated antigen peptides to interact with and immobilize onto a Series S Sensor Chip SA (certified) (GE Healthcare) were used. Antibodies of interest were captured onto an antigen peptide-immobilized chip, and allowed to interact to each FcγR diluted with running buffer. To regenerate and repeatedly use the chip, the antibodies captured on the chip were washed off by reacting 10 mM glycine-HCl, pH 1.5.

[2] = biological target: T2, FcγRIIIa extracellular domain with …; assay: SPR (Biacore), antibody captured, FcγR as analyte; He Ab binding / GpH7-A5/GpH7-B3/GpL16-k0 binding x 100
Protocol: as §1, §2

FcγRIa = biological target: T3, FcγRIa (human, UniProt P12314 16-292); assay: SPR (Biacore), antibody captured on antigen peptide, FcγR as analyte; relative to GpH7-A5/GpH7-B3/GpL16-k0 = 100
T3 construct: extracellular domain; Soluble extracellular domain with C-terminal His tag, used as analyte in Biacore; also called FcgRI; 1a; not shown: His tag attached to the C terminus
T3 sequence (P12314 16-292): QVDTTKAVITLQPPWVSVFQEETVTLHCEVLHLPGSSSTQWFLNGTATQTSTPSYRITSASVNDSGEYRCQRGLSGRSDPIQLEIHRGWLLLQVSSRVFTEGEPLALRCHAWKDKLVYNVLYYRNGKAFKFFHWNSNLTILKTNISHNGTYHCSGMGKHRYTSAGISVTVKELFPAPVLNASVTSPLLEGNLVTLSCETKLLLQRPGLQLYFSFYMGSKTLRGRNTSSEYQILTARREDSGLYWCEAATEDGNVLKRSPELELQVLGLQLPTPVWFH

FcγRIIb = biological target: T1, FcγRIIb; assay: as above

Binder | He_3a/2b (IIIa/IIb) [1] | He/Con_3a (IIIa binding) [2] | He/Con_1a (FcγRIa) | He/Con_2b (FcγRIIb)
GpH7-A5/GpH7-B3 variant A327_12R/GpL16-k0 (antibody, human IgG1, kappa, position is EU numbering; also called He Ab) heavy 1: not shown heavy 2: not shown light: DIVMTQSPLSLPVTPGEPASISCQASESLVHSNRNTYLHWYLQKPGQSPQLLIYKVSNRFSGVPDRFSGSGSGTDFTLKISRVEAEDVGVYYCSQNTHVPPTFGQGTKVEIERTVAAPSVFIFPPSDEQLKSGTASVVCLLNNFYPREAKVQWKVDNALQSGNSQESVTEQDSKDSTYSLSSTLTLSKADYEKHKVYACEVTHQGLSSPVTKSFNRGEC | 2.15 ratio | 19.3 relative, control = 100 |  | 
GpH7-A5/GpH7-B3 variant L328_11K/GpL16-k0 (antibody, human IgG1, kappa, position is EU numbering; also called He Ab) heavy 1: not shown heavy 2: not shown light: DIVMTQSPLSLPVTPGEPASISCQASESLVHSNRNTYLHWYLQKPGQSPQLLIYKVSNRFSGVPDRFSGSGSGTDFTLKISRVEAEDVGVYYCSQNTHVPPTFGQGTKVEIERTVAAPSVFIFPPSDEQLKSGTASVVCLLNNFYPREAKVQWKVDNALQSGNSQESVTEQDSKDSTYSLSSTLTLSKADYEKHKVYACEVTHQGLSSPVTKSFNRGEC | 4.46 ratio | 33.5 relative, control = 100 |  | 
GpH7-A5/GpH7-B3 variant L328_12R/GpL16-k0 (antibody, human IgG1, kappa, position is EU numbering; also called He Ab) heavy 1: not shown heavy 2: not shown light: DIVMTQSPLSLPVTPGEPASISCQASESLVHSNRNTYLHWYLQKPGQSPQLLIYKVSNRFSGVPDRFSGSGSGTDFTLKISRVEAEDVGVYYCSQNTHVPPTFGQGTKVEIERTVAAPSVFIFPPSDEQLKSGTASVVCLLNNFYPREAKVQWKVDNALQSGNSQESVTEQDSKDSTYSLSSTLTLSKADYEKHKVYACEVTHQGLSSPVTKSFNRGEC | 3.53 ratio | 32.7 relative, control = 100 |  | 
GpH7-A5/GpH7-B3 variant P238_19Q/GpL16-k0 (antibody, human IgG1, kappa, Heterodimerized IgG1; mutation in the GpH7-B3 H chain only; also called He Ab) heavy 1: not shown heavy 2: not shown light: DIVMTQSPLSLPVTPGEPASISCQASESLVHSNRNTYLHWYLQKPGQSPQLLIYKVSNRFSGVPDRFSGSGSGTDFTLKISRVEAEDVGVYYCSQNTHVPPTFGQGTKVEIERTVAAPSVFIFPPSDEQLKSGTASVVCLLNNFYPREAKVQWKVDNALQSGNSQESVTEQDSKDSTYSLSSTLTLSKADYEKHKVYACEVTHQGLSSPVTKSFNRGEC |  |  | 97.6 % of control | 110 % of control
GpH7-A5/GpH7-B3 variant P238_20W/GpL16-k0 (antibody, human IgG1, kappa, Heterodimerized IgG1; mutation in the GpH7-B3 H chain only; also called He Ab) heavy 1: not shown heavy 2: not shown light: DIVMTQSPLSLPVTPGEPASISCQASESLVHSNRNTYLHWYLQKPGQSPQLLIYKVSNRFSGVPDRFSGSGSGTDFTLKISRVEAEDVGVYYCSQNTHVPPTFGQGTKVEIERTVAAPSVFIFPPSDEQLKSGTASVVCLLNNFYPREAKVQWKVDNALQSGNSQESVTEQDSKDSTYSLSSTLTLSKADYEKHKVYACEVTHQGLSSPVTKSFNRGEC |  |  | 99.9 % of control | 123 % of control
GpH7-A5/GpH7-B3 variant S239_03V/GpL16-k0 (antibody, human IgG1, kappa, Heterodimerized IgG1; mutation in the GpH7-B3 H chain only; also called He Ab) heavy 1: not shown heavy 2: not shown light: DIVMTQSPLSLPVTPGEPASISCQASESLVHSNRNTYLHWYLQKPGQSPQLLIYKVSNRFSGVPDRFSGSGSGTDFTLKISRVEAEDVGVYYCSQNTHVPPTFGQGTKVEIERTVAAPSVFIFPPSDEQLKSGTASVVCLLNNFYPREAKVQWKVDNALQSGNSQESVTEQDSKDSTYSLSSTLTLSKADYEKHKVYACEVTHQGLSSPVTKSFNRGEC |  |  | 95.9 % of control | 108 % of control
GpH7-A5/GpH7-B3 variant S239_05P/GpL16-k0 (antibody, human IgG1, kappa, Heterodimerized IgG1; mutation in the GpH7-B3 H chain only; also called He Ab) heavy 1: not shown heavy 2: not shown light: DIVMTQSPLSLPVTPGEPASISCQASESLVHSNRNTYLHWYLQKPGQSPQLLIYKVSNRFSGVPDRFSGSGSGTDFTLKISRVEAEDVGVYYCSQNTHVPPTFGQGTKVEIERTVAAPSVFIFPPSDEQLKSGTASVVCLLNNFYPREAKVQWKVDNALQSGNSQESVTEQDSKDSTYSLSSTLTLSKADYEKHKVYACEVTHQGLSSPVTKSFNRGEC |  |  | 85.3 % of control | 102 % of control
